12 molecules from US20180079802A1 (VANDERBILT UNIVERSITY, published 2018) can be followed below.

B1: 2B4 (antibody, V domains shown)
VH: QVQLVQSGSELKKPGASVKVSCKASGYSFTSYSINWVRQAPGQGPEWMGWIDTNTGNPTYAQDFAGRFVFSLDTSVTTAYLQISSLKAGDTAVYYCATYYVDLWGSYRQDYYGMDVWGH
VL: QSVLTQPPSASGTPGQRVTISCSGGSSNIGSNPVNWYQMVPGTAPKLLLYTNNQRPSGVPDRFSGSKSGTSASLAINGLQSEDEADYYCAVWDDSLSGRWVFGGGTKVTVL
B2: 4J21 (antibody, V domains shown)
VH: QVQLVQSGSELKKPGASVKVSCKASGYSFTSYSINWVRQAPGQGPEWMGWIDTNTGNPTYAQDFAGRFVFSLDTSVTTAYLQISSLKAGDTAVYYCATYYVDLWGSYRQDYYGMDVWGHGTLVTVSS
VL: B1 VL with L4V, A10V, R17G, V108L
B3: 5O14 (antibody, V domains shown)
VH: QVQLVQSGGRVVQAGRSLRLSCAASGFTFSMYGVHWVRQAPGKGLEWVAVIWNDGSKEYYGDSVKGRFTISRDNSRNTLYLQMNSLRVDDTAVYFCARDGIPDPERGDYGGLDYWGQGTLVTVSS
VL: QTVVTQFPSSPFASVGDGVTITCRARQSISSYVNWYQQKPGKAPKLLIYATSSLQSGVPSRFSGSGYGTDFTLTISGLQPEDFATYYCQQSYSFPRTFGQGTKVEIK
B4: 2C2 (antibody, V domains shown)
VH: QVQLVQSGGGLVQPGRSLTLSCAASGFTFDVYAMHWVRQAPGKGLEWVAGISWNSGSVGYADSMKGRFTISRDNAKNSLYLQINSLRAEDTALYYCAKAFWFGELSGYGMDVWGQGTLVTVSS
VL: QAVVTQPPSASGFPGQSVTISCTGTSSDVGSYNYVSWYQQHPGKAPKLIIYAVTRRPSGVPERFSGSKSGNTASLTVSGLQAEDEADYYCTSYAGNNKDVFGTGTKVTVL
B5: 4N12 (antibody, V domains shown)
VH: QVQLVQSGAEVKKPGASVKVSCKVSGYILSKLSVHWVRQAPGKGLEWMGGSEREDGETVYAQKFQGRISLTEDTSIETAYMELSSLSSEDTAVYYCATGGFWSMIGGNGVDYWGQGTLVTVSS
VL: QAVVTQSPSSLPASVGDRVTITCRASQDIRNNLGWYQQKPGKAPERLIYGTSNLQSGVPSRFSGSGSGTEFTLTISSLQPEDFATYYCLQHNSYPPTFGRGTKVEIK
B6: 3B4 (antibody, V domains shown)
VH: QVQLEESGPTLVKPTQTLTLTCSFSGFSLTTTGVTVGWIRQPPGKALEWLALIYWDDDKRYSPSLKSRLTITKDTSKNQVVLTMTNMDPVDTATYYCAHSTGYYDSSGYRGALDAFAVWGQGTLVTVSS
VL: QIVVTQFPDSPAVSLGERATINCKSSQSVLYHSNNKNYLAWYQQKPGQPPNLLIYWASARQSGVPDRFSGSGSGTDFTLTISSLQAEDVAVYYCQQYYSTPYTFGQGTKLEIK
B7: 8G18 (antibody, V domains shown)
VH: QVQLVQSGAQVKKPGSSVKVSCKPSGGTFNNNGISWVRQAPGQGLEWMGGIVPNFGTPTYGQDFQGRVTITADESTSTVFLELTRLRSDDTAVYFCARGRTAVTPMQLGLQFYFDFWGRGTLVTVSS
VL: QTVVTQEPSLTVSPGGTVTLTCSANSGAVTSDYYPNWFQQKPGQAPRALIYSASNKFSWTPARFSGSLLGGKAALTLSGAQPEDEAEYYCLVYSGDGVVFGGGTKLTV
B8: 3A2 (antibody, V domains shown)
VH: QVQLVQSGGGVVQPGRSLRLSCAASGFTFSNYVMEWVRQAPGKGLEWVAVISYDGSNKYYADSVKGRFTISRDNSKNTLYLQMNSLRAEDTAVYYCARSEWESSYGSGNYYTDYFYYYAMDVWGPGTLVTVSS
VL: QAVVTQSPLSLPVTPGEPASISCRSNQSLLRGIRYNYLDWYLQKPGQSPQLLIYLGSNRASGVPDRFSGSGSATDFTLKISRVEAEDVGVYYCMQALQTPTTFGQGTRLEIK
B9: 3E23 (antibody, V domains shown)
VH: QVQLVQSGPGLVKPSDTLSLTCSVSSDALRSRSYYWGWVRQPPGKGLEWIGTVSYSGGTYYNPSLQSRVTVSVDTSKNHFSLRLNSVTAADAAVYYCARSYFYDGSGYYYLSYFDSWGQGTLVTVSS
VL: QAVVTQEPSLTVSPGGTVTLTCASSTGAVTSGHYPNWFQQKPGQPPRALIYSTDNKHSWTPARFSGSLLGVKAALTLSDVQPEDEADYYCLLHFGGVVVFGGGTKLTVL
B10: 1L1 (antibody, V domains shown)
VH: QVQLVQSGPTLVKPTQTLTLTCTFSGFSLSISGVGVGWIRQPPGKALEWLALIYWDDDKRYSPSLKSRLTITKDTSENQVVLTMTNMDPVDTATYYCAHSMTKGGAIYGQAYFEYWGQGTLV
VL: PSPALEPDSDVGGYNYVSWYQQHPGKAPKLIIYDVTDRPSGVSNRFSASKSANTASLTISGLQAEDEADYYCSSYTSSST
B11: 4J14 (antibody, V domains shown)
VH: QVQLVQSGAEVKKPGSSVKVSCKASGGTSSTYAISWVRQAPGQGLEWMGGSIPVFATVNYAQKFQGRLTITADESTSTVYMELSSLRSEDTAVYFCASPYCSSMNCYTTFYYFDFWGQGTLVTVSS
VL: QAVVTQPASVFGFPGQSITISCTGTSSDFGTYNYVSWYQQHPGQAPKLMIFDVSNRPSGVSNRFSGSKSGNTASLTISGLQAEDEASYYCSSYTSGSTLYGGGTKLTVL
B12: 2D12 (antibody, V domains shown)
VH: QVQLVQSGAEVKKPGASVKVSCKASGYSFNIYGISWVRQAPGQGLEWMGWISAYNGNTNYAQKLQGRVTMTTDTSTSTAYMELRSLRSDDTAVYYCARPLWGEFYYDIWGQGTLVTVSS
VL: QAVVTQSPGTLSLSPGERATLSCRASQSVSSGYSAWYQQKPGQAPRLLIYGASKRAAGIPDRFSGSGSGTDFTLTISRLEPEDFAVYYCQLFATSPPPFGQGTRLEIK

For orientation: Kd means the free concentration of one partner at which half of the binding sites on the other are occupied at equilibrium, for simple one-to-one binding. In general, koff refers to the first-order rate constant of dissociation. Broadly, the kon is a measure of how fast the partners come together.

Residue numbers refer to the chain shown, from its start.

One test has as its target CHIKV strain 99659 (Asian genotype, 2014 Caribbean) (Chikungunya virus strain 99659). The test is described as follows: cell-based or functional assay.
As for B1, the “Neutralization (FRNT), EC50” value is 7 ng/mL.

On to B2, for which the “Neutralization (FRNT), EC50” value stood at 7.2 ng/mL.

With B3, the “Neutralization (FRNT), EC50” value turned out to be 6.2 ng/mL.

For a further test, the target named is CHIKV strain NI 64 IbH 35 (West African genotype) (Chikungunya virus strain NI 64 IbH 35). Nature of the test: cell-based or functional assay.
Turning to B4, the “Neutralization (FRNT), EC50” value was greater than 10000 ng/mL.

Take B1: the “Neutralization (FRNT), EC50” value is 3.2 ng/mL.

For the molecule B2, the “Neutralization (FRNT), EC50” value is 5.2 ng/mL.

Consider B3, for which the “Neutralization (FRNT), EC50” value amounted to 6.7 ng/mL.

The next test concerns the target CHIKV strain RSU1 (Asian genotype) (Chikungunya virus strain RSU1). Nature of the test: cell-based or functional assay.
For B4, the “Neutralization (FRNT), EC50” value was greater than 10000 ng/mL.

As for B1, the “Neutralization (FRNT), EC50” value came to 6.5 ng/mL.

On to B2, for which the “Neutralization (FRNT), EC50” value stood at 7.7 ng/mL.

With B3, the “Neutralization (FRNT), EC50” value was 17.3 ng/mL.

A further test deals with CHIKV strain LR2006 OPY1 (LR) (ECSA genotype) (Chikungunya virus strain LR2006 OPY1). Nature of the test: cell-based or functional assay.
With B4, the “Neutralization (FRNT), EC50” value is greater than 10000 ng/mL.

Turning to B1, the “Neutralization (FRNT), EC50” value turned out to be 5.6 ng/mL.

Consider B2, for which the “Neutralization (FRNT), EC50” value was found to be 7.4 ng/mL.

As for B3, the “Neutralization (FRNT), EC50” value was 12.1 ng/mL.

The target in the next test is CHIKV p62-E1 (Chikungunya virus). Nature of the test: SPR (Biacore T100), IgG captured by anti-human IgG, p62-E1 injected.
For the molecule B5, the affinity, expressed as Kd, was 0.95 nM; the koff turned out to be 0.000118 s⁻¹; the kon worked out at 124000 M⁻¹ s⁻¹; the “t1/2” value came out at 98 min.

As to B6, the dissociation constant (Kd) amounted to 0.54 nM, the koff came to 0.000156 s⁻¹, the kon was determined as 291000 M⁻¹ s⁻¹ and the “t1/2” value was 74 min.

For B7, binding was put at a Kd of 0.48 nM, the koff was found to be 0.000188 s⁻¹, the kon is 390000 M⁻¹ s⁻¹ and the “t1/2” value came out at 62 min.

For the molecule B8, the Kd was 4.78 nM, the koff was 0.00101 s⁻¹, the kon worked out at 212000 M⁻¹ s⁻¹ and the “t1/2” value amounted to 11 min.

Consider B4, for which binding was characterised by a dissociation constant (Kd) of 4.59 nM, the koff came to 0.000608 s⁻¹, the kon amounted to 154000 M⁻¹ s⁻¹ and the “t1/2” value is 19 min.

Take B9: the off-rate (koff) turned out to be 0.000267 s⁻¹ and the “t1/2” value amounted to 43 min.

In the case of B10, the affinity, expressed as Kd, was 3.79 nM; the koff was 0.000273 s⁻¹; the kon is 88000 M⁻¹ s⁻¹; the “t1/2” value is 42 min.

In the case of B2, binding was put at a Kd of 0.54 nM, the koff came to 6.2e-05 s⁻¹, the kon is 119000 M⁻¹ s⁻¹ and the “t1/2” value was determined as 186 min.

On to B11, for which the affinity, expressed as Kd, was 9.94 nM; the koff is 0.00153 s⁻¹; the kon is 161000 M⁻¹ s⁻¹; the “t1/2” value amounted to 8 min.

Consider B3, for which the Kd came out at 1.15 nM, the koff amounted to 0.000911 s⁻¹, the kon was 790000 M⁻¹ s⁻¹ and the “t1/2” value worked out at 13 min.

On to B12, for which the Kd turned out to be 0.49 nM, the koff is roughly 0.00086 s⁻¹, the kon was found to be 1.75e+06 M⁻¹ s⁻¹ and the “t1/2” value amounted to 13 min.
